Data on nine molecules can be found in patent publication US20210395361A1 (Alector, published 2021).

Test [1] concerns the target T1, Histidine-tagged human Siglec-5 (NovoProtein) (human, UniProt O15389 17-434, limits assumed).
T1 construct: Bought soluble protein; also called His-tagged human Siglec-5; not shown: histidine tag
T1 sequence: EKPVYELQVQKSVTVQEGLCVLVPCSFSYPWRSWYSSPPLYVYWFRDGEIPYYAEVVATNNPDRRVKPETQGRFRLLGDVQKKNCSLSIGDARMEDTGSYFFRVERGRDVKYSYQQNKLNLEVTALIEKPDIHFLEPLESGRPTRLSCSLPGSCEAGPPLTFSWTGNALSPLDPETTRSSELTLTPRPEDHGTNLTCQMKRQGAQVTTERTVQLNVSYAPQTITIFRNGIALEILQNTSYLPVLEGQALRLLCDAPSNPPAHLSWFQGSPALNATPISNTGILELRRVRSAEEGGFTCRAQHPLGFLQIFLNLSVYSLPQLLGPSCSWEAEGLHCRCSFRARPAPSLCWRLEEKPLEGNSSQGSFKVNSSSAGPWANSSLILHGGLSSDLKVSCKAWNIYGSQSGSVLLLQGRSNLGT
The test can be described thus: array SPR, antibody immobilized, His-tagged human Siglec-5 (0-500 nM) in solution; apparent affinity. The method, then: The apparent binding affinities of the anti-Siglec-5 antibodies were measured by array surface plasmon resonance (SPR), according to standard techniques (Abdiche, et al. (2016) MAbs 8:264-277). Briefly, anti-Siglec-5 antibodies were immobilized on a HC 30M chip at four different densities, at antibody concentration of 10 μg/mL, 2.5 μg/mL, 0.63 μg/mL, and 0.16 μg/mL. Varying concentrations (0-500 nM) of Histidine-tagged human Siglec-5 or cynomolgus Siglec-5 (NovoProtein) were then bound to the captured anti-Siglec-5 surface (5 min injection time, 15 min dissociation time) in HBS-EP⁺/1 mg/mL BSA running buffer. Kinetic analysis was performed using Carterra software to extract association and dissociation rate constants (kₐ and kd, respectively) for each antibody. Apparent affinity constants (KD) were calculated from the ratio kd/kₐ. None of the anti-Siglec-5 antibodies bound to cynomolgus Siglec-5 protein.

Another test addresses T2, human Siglec-14 (human, UniProt Q08ET2 17-396).
T2 construct: also called CHO-S14; CHO-S hSiglec-14
T2 sequence: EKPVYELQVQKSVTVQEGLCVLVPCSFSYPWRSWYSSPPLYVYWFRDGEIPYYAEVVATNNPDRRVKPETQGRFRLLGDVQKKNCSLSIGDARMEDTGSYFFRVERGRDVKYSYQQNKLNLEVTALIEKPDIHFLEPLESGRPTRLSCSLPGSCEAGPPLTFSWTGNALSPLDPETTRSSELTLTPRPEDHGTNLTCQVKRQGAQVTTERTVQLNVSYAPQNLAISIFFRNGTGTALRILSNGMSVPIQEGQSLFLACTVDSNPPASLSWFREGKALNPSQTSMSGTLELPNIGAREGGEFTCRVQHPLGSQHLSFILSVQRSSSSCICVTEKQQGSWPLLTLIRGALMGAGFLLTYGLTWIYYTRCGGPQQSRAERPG
Briefly: FACS titration, CHO-S hSiglec-14 cells, anti-human IgG secondary; y-axis Fold over isotype, x-axis Antibody (nM), log scale; the same flat line on CHO-S Parental cells. The method, then:
(§1) CHO cells were incubated with increasing concentrations of anti-Siglec-5 antibody, as indicated on the x-axis of each plot. The binding of anti-Siglec-5 antibodies to the surface of CHO cells was then measured by FACS. The y-axis provides the binding of each indicated anti-Siglec-5 antibody to the surface of CHO cells relative to hIgG1 isotype control antibodies. S5-174-H2L1 refers to antibody S5-174-H3; S5-174-H3L1 refers to antibody S5-174-H5; S5-174-H3L2 refers to antibody S5-174-H6; S5-174-H4L1 refers to antibody S5-174-H7; S5-174-H4L2 refers to antibody S5-174-H8; S5-G03-H2L1 refers to antibody S5-G-03-H4; S5-G03-H2L2 refers to antibody S5-G-03-H5; S5-G03-H3L1 refers to antibody S5-G-03-H7; S5-G03-H3L2 refers to antibody S5-G-03-H8; and S5-G03-H3L3 refers to antibody S5-G-03-H9.
(§2) Various anti-Siglec-5 antibodies of the present disclosure were evaluated for their ability to bind to CHO cells which were stably transfected with human Siglec-5 (CHO-S5) or human Siglec-14 (CHO-S14). Cells were incubated with various dilutions of anti-Siglec-5 antibodies for 30 minutes on ice in the dark, followed by a 30-minute incubation with a fluorescently conjugated anti-human IgG secondary antibody. Cells were then washed twice in FACS buffer (PBS+2% FBS, 2 mM EDTA), and flow cytometry was performed on a BD FACS Canto. Data were analyzed using FlowJo software (Ashland, Oreg.). In FIG. 9, hIgG1 refers to isotype control antibodies; S5-174-H2L1 refers to antibody S5-174-H3; S5-174-H3L1 refers to antibody S5-174-H5; S5-174-H3L2 refers to antibody S5-174-H6; S5-174-H4L1 refers to antibody S5-174-H7; S5-174-H4L2 refers to antibody S5-174-H8; S5-G03-H2L1 refers to antibody S5-G-03-H4; S5-G03-H2L2 refers to antibody S5-G-03-H5; S5-G03-H3L1 refers to antibody S5-G-03-H7; S5-G03-H3L2 refers to antibody S5-G-03-H8; and S5-G03-H3L3 refers to antibody S5-G-03-H9.

The next test deals with T3, human Siglec-5 (human, UniProt O15389 17-551).
T3 construct: also called CHO-S5; CHO-S hSiglec-5
T3 sequence: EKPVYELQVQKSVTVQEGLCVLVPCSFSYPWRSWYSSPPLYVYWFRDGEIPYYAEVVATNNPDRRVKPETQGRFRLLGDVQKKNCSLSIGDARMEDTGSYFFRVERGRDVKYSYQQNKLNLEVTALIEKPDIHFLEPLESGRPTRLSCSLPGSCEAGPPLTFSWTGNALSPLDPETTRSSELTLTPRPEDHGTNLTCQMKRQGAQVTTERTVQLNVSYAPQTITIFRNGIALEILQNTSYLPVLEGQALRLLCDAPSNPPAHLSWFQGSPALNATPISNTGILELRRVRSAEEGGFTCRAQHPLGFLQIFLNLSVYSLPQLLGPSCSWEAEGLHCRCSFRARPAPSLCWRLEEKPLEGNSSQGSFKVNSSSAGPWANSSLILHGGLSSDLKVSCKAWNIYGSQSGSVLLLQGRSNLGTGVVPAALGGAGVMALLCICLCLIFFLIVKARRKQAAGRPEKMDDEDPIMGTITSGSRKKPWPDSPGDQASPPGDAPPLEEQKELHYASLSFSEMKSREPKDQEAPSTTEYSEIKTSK
The test can be described thus: FACS titration, CHO-S hSiglec-5 cells, anti-human IgG secondary; y-axis Fold over isotype, x-axis Antibody (nM), log scale. The method, then: as §1, §2

For orientation: koff means the first-order rate constant of dissociation. As usually defined, the kon is a measure of how fast the partners come together.

B1: S5-G-03 (antibody, V domains shown)
VH: QAYLQQSGGGLVQPGQSLKLSCAASGFTFSTYGMSWVRQTPDKRLELVATINSNGDNTYYPDSVKGRFTISRDNANNTLYLQMSSLKSEDTAMYFCARAWPSITTVFAPYTLDYWGQGTSVTVSS
VL: DIVLTQSPAIMSASPGEKVTMTCRASSSVSSSFLHWYQQKSGASPKLWIYSTSNLASGVPTRFSGSGSGTSYSLSISSVEAEDTATYFCQQYSGYPLTFGGGTKLEIK
notes: Mouse-derived variable domains; expressed in mammalian cells as full antibody; hIgG1 isotype control; also called SG-5-03
With B1, in test [1], the Kd came out at 7.1 nM, the koff was found to be 0.0001 s⁻¹ and the kon is 14000 M⁻¹ s⁻¹. In the test with human Siglec-14, the binding result is “no binding (tested: last point between 1 and 10 nM)”.

B2: S5-174-H5 (antibody, V domains shown)
VH: QVQLVQSGAEVKKPGSSVKLSCKASGYTFTNYWMHWVRQAPGQGLEWVGEIDPSDGYVTYAQKFQGRATLTVDKSTSTAYMELSSLRSEDTAVYYCAGVYYGNSIYYAMDYWGQGTLVTVSS
VL: DIQMTQSPSSLSASVGDRVTITCRASQDVGTAVAWYQQKPGKAPKLLIYWTSTRHTGVPSRFSGSGSGTDFTLTISSLQPEDFATYYCQQYRSYPFTFGQGTKLEIK
notes: Humanized variant of S5-174; also called S5-174-H3L1
Turning to B2, the binding result with human Siglec-14 was “no binding (tested: last point between 1 and 10 nM)”; with human Siglec-5 it was “binds”.

B3: S5-174-H6 (antibody, V domains shown)
VH: QVQLVQSGAEVKKPGSSVKLSCKASGYTFTNYWMHWVRQAPGQGLEWVGEIDPSDGYVTYAQKFQGRATLTVDKSTSTAYMELSSLRSEDTAVYYCAGVYYGNSIYYAMDYWGQGTLVTVSS
VL: DIQMTQSPSSLSTSVGDRVTITCRASQDVGTAVAWYQQKPGKAPKLLIYWTSTRHTGVPSRFSGSGSGTDFTLTISSVQPEDLATYYCQQYRSYPFTFGQGTKLEIK
notes: Humanized variant of S5-174; also called S5-174-H3L2
As for B3, the binding result was “no binding (tested: last point between 1 and 10 nM)” in the test with human Siglec-14; “binds” in the test with human Siglec-5.

B4: S5-174-H7 (antibody, V domains shown)
VH: QVQLVQSGAEVKKPGSSVKLSCKASGYTFTNYWMHWVRQAPGQGLEWVGEIDPSDGYVTYAQKFQGRATLTVDRSTSTAYMELSSLRSEDTAVYYCAGVYYGNSIYYAMDYWGQGTLVTVSS
VL: DIQMTQSPSSLSASVGDRVTITCRASQDVGTAVAWYQQKPGKAPKLLIYWTSTRHTGVPSRFSGSGSGTDFTLTISSLQPEDFATYYCQQYRSYPFTFGQGTKLEIK
notes: Humanized variant of S5-174; also called S5-174-H4L1
Consider B4, for which the binding result in the test with human Siglec-14 was “no binding (tested: last point between 1 and 10 nM)”; with human Siglec-5, “binds”.

B5: S5-174-H3 (antibody, V domains shown)
VH: QVQLVQSGAEVKKPGSSVKVSCKASGYTFTNYWMHWVRQAPGQGLEWMGEIDPSDGYVTYAQKFQGRVTITVDKSTSTAYMELSSLRSEDTAVYYCAGVYYGNSIYYAMDYWGQGTLVTVSS
VL: DIQMTQSPSSLSASVGDRVTITCRASQDVGTAVAWYQQKPGKAPKLLIYWTSTRHTGVPSRFSGSGSGTDFTLTISSLQPEDFATYYCQQYRSYPFTFGQGTKLEIK
notes: Humanized variant of S5-174; also called S5-174-H2L1
On to B5, for which the binding result with human Siglec-14 is “no binding (tested: last point between 1 and 10 nM)”; with human Siglec-5, “binds”.

B6: S5-174-H8 (antibody, V domains shown)
VH: QVQLVQSGAEVKKPGSSVKLSCKASGYTFTNYWMHWVRQAPGQGLEWVGEIDPSDGYVTYAQKFQGRATLTVDRSTSTAYMELSSLRSEDTAVYYCAGVYYGNSIYYAMDYWGQGTLVTVSS
VL: DIQMTQSPSSLSTSVGDRVTITCRASQDVGTAVAWYQQKPGKAPKLLIYWTSTRHTGVPSRFSGSGSGTDFTLTISSVQPEDLATYYCQQYRSYPFTFGQGTKLEIK
notes: Humanized variant of S5-174; also called S5-174-H4L2
With B6, the binding result was “no binding (tested: last point between 1 and 10 nM)” in the test with human Siglec-14; “binds” with human Siglec-5.

B7: S5-G-03-H8 (antibody, V domains shown)
VH: EVQLLQSGGGLVQPGGSLRLSCAASGFTFSTYGMSWVRQAPGKGLELVATINSNGDNTYYADSVKGRFTISRDNSKNTLYLQMNSLRAEDTAVYYCARAWPSITTVFAPYTLDYWGQGTLVTVSS
VL: DIQMTQSPSSLSASVGDRVTITCRASSSVSSSFLHWYQQKPGKAPKLWIYSTSNLASGVPSRFSGSGSGTDYTLTISSLQPEDFATYYCQQYSGYPLTFGQGTKLEIK
notes: Humanized variant of S5-G-03; also called S5-G03-H3L2; SG-5-03-H8
Regarding B7, the binding result with human Siglec-14 is “no binding (tested: last point between 1 and 10 nM)”; in the test with human Siglec-5, “binds”.

B8: S5-G-03-H5 (antibody, V domains shown)
VH: EVQLLESGGGLVQPGGSLRLSCAASGFTFSTYGMSWVRQAPGKGLELVATINSNGDNTYYADSVKGRFTISRDNSKNTLYLQMNSLRAEDTAVYYCARAWPSITTVFAPYTLDYWGQGTLVTVSS
VL: DIQMTQSPSSLSASVGDRVTITCRASSSVSSSFLHWYQQKPGKAPKLWIYSTSNLASGVPSRFSGSGSGTDYTLTISSLQPEDFATYYCQQYSGYPLTFGQGTKLEIK
notes: Humanized variant of S5-G-03; also called S5-G03-H2L2; SG-5-03-H5
As for B8, the binding result in the test with human Siglec-14 is “no binding (tested: last point between 1 and 10 nM)”; with human Siglec-5, “binds”.

B9: S5-G-03-H4 (antibody, V domains shown)
VH: EVQLLESGGGLVQPGGSLRLSCAASGFTFSTYGMSWVRQAPGKGLELVATINSNGDNTYYADSVKGRFTISRDNSKNTLYLQMNSLRAEDTAVYYCARAWPSITTVFAPYTLDYWGQGTLVTVSS
VL: DIQMTQSPSSLSASVGDRVTITCRASSSVSSSFLHWYQQKPGKAPKLLIYSTSNLASGVPSRFSGSGSGTDFTLTISSLQPEDFATYYCQQYSGYPLTFGQGTKLEIK
notes: Humanized variant of S5-G-03; also called S5-G03-H2L1
With B9, the binding result with human Siglec-14 is “no binding (tested: last point between 1 and 10 nM)”; with human Siglec-5, “binds”.
